B1: full length SARS-CoV E protein (natural protein)
chain: MYSFVSEETGTLIVNSVLLFLAFVVFLLVTLAILTALRLCAYCCNIVNVSLVKPTVYVYSRVKNLNSSEGVPDLLV

Columns and labels:
[1] = target: the molecule itself; assay: solution NMR structure (inter-monomer NOEs, PRE, RDCs)
AUC = target: the molecule itself; assay: AUC

Row | Protein | binding result [1] | stoichiometry N (AUC)
1 | ETGTLIVNSVLLFLAFVVFLLVTLAILTALR [ETM peptide, transmembrane domain of SARS-CoV E (residues 8-38)] | binds | –
2 | B1 | – | 5
3 | EETGTLIVNSVLLFLAFVVFLLVTLAILTALRLCAY [synthetic ETM spanning residues 7-42 of SARS-CoV E] | – | 5

From PMC2702000 (PLoS Pathogens, 2009)
